Our source for the SeFtsZ retrieved from the pellet fraction with GTP after mixing with SeSepF (sedimentation assay of polymerization; 16% without SeSepF) and Kd values is PMC11987601.

“And” between values parts separate entries of the source, which are not always exact repeats. Equal entries are not always repeated.

The target of experiment [1] is His6-SeFtsZ (Spiroplasma eriocheiris FtsZ) (Spiroplasma eriocheiris).
Experiment [2] deals with His6-SeSepF (Spiroplasma eriocheiris SepF) (Spiroplasma eriocheiris). Description: BLI; as a1, in the presence of GTP.
His6-SeSepF (Spiroplasma eriocheiris SepF) (Spiroplasma eriocheiris), sequence (partner, as listed by the source): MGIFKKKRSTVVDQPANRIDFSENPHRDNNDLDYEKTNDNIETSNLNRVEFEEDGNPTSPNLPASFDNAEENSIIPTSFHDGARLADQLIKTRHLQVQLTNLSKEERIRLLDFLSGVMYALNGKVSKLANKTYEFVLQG
The target is the same in experiment [3]. The experiment can be described thus: BLI; His6-SeSepF immobilised on Ni-NTA biosensor tips (10 ug/ml), SeFtsZ or SeFtsZ L272E as analyte (0-100 ug/ml); Octet N1; 50 mM Tris-HCl pH 7.4, 100 mM KCl, 10 mM MgCl2, 0.02% Tween-20; no nucleotide (apo).

Substance “His6-SeSepF (Spiroplasma eriocheiris SepF) (natural protein)” displayed a SeFtsZ retrieved from the pellet fraction with GTP after mixing with SeSepF (sedimentation assay of polymerization; 16% without SeSepF) in experiment [1] of 28%.
As for “SeFtsZ L272E mutant (from UniProt A0A0H3XMR3 1-411) (natural protein)”, the figures for the dissociation constant (Kd) in experiment [2] and in experiment [3] were 0.7 µM and 0.98 µM, respectively.
Regarding “Spiroplasma eriocheiris FtsZ, His-tag removed (from UniProt A0A0H3XMR3 1-411) (natural protein)”, the dissociation constant (Kd) in experiment [2] was 53.9 µM; in experiment [3], 1.04 µM and 1.13 µM.
